Laboratory results from article PMC9089689 (ACS Omega, 2022).

What was measured:
SEC = biological target: the molecule itself; test: SEC
NMR 1H-15N HSQC = biological target: the molecule itself; test: NMR 1H-15N HSQC
[1] = biological target: T1, Hup-WT (histone-like DNA binding protein HU) (Helicobacter pylori, UniProt O25506 1-94); test: Tyr fluorescence quenching
T1 sequence: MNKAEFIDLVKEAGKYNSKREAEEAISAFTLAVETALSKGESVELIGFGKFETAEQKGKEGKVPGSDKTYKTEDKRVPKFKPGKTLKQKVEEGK

| Binder | stoichiometry N (SEC) | intensity ratio [dimer:monomer] (NMR 1H-15N HSQC) | Kd [1] [nM] |
| --- | --- | --- | --- |
| Hup-P64A protein (natural protein, Helicobacter pylori, UniProt O25506 1-94, looked up) MNKAEFIDLVKEAGKYNSKREAEEAISAFTLAVETALSKGESVELIGFGKFETAEQKGKEGKVAGSDKTYKTEDKRVPKFKPGKTLKQKVEEGK | 2 | ~1.5 | – |
| Helicobacter pylori histone-like DNA binding protein (Hup), wild type (natural protein, UniProt O25506 1-94, looked up) MNKAEFIDLVKEAGKYNSKREAEEAISAFTLAVETALSKGESVELIGFGKFETAEQKGKEGKVPGSDKTYKTEDKRVPKFKPGKTLKQKVEEGK | 2 | – | – |
| TTTTTTTTTTCGAAGAAAAAAAAAA (structured_DNA) [hp-DNA (25-base A/T-rich hairpin)] | – | – | 500 ± 50 |
